Reference: article PMC9243173, “Iron-regulated assembly of the cytosolic iron–sulfur cluster biogenesis machinery” (The Journal of Biological Chemistry, 2022)

How the values were obtained:
Assay in all cases: affinity purification with mass spectrometry; anti-HA beads on lysates of Flp-In 293 cells expressing the 3HA-3FLAG-tagged bait (NUBP2, wildtype or mutant CIAO3); targeted proteomics assay (parallel reaction monitoring) of CIA components and substrates; CIAO3 purifications normalised to CIAO3; wildtype CIAO3 cells also treated with FAC or DFO for 8 h
Details in all cases: partners not purified
[1] = target: T1, 3HA-3FLAG-CIAO3-C71S/C190S/C395S (human, UniProt Q9H6Q4 1-476, C71S | C190S | C395S)
T1 construct: human CIAO3 (NARFL), as m13, with C71S, C190S and C395S; also called C71S/C190S/C395S mutant; source: Flp-In T-REx 293, stably expressed, induced with doxycycline, in lysate; not shown: 3xHA, N-terminal, kept; 3xFLAG, N-terminal, kept
T1 sequence (Q9H6Q4 whole entry C71S/C190S/C395S): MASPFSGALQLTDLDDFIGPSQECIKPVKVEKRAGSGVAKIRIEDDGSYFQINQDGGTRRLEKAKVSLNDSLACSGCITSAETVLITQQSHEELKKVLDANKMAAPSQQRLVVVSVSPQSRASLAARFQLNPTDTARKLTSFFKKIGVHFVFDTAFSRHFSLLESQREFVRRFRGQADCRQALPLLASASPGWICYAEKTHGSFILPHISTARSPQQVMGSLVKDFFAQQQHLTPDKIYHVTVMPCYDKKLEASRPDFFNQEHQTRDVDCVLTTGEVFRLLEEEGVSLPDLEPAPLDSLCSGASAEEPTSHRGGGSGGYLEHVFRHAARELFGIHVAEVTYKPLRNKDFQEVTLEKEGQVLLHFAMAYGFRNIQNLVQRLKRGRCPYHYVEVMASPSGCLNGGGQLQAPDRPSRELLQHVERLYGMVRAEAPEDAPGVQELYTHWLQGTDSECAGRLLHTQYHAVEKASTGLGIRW

3HA-3FLAG-CIAO3-C71S = target: T2, 3HA-3FLAG-CIAO3-C71S (human, UniProt Q9H6Q4 1-476, C71S)
T2 construct: human CIAO3 (NARFL), as m13, with C71S (N-terminal Fe-S cluster site); also called C71S mutant; source: Flp-In T-REx 293, stably expressed, induced with doxycycline, in lysate; not shown: 3xHA, N-terminal, kept; 3xFLAG, N-terminal, kept
T2 sequence (Q9H6Q4 whole entry C71S): as the sequence (Q9H6Q4 whole entry C71S/C190S/C395S) above, with S190C, S395C counted along it

[2] = target: T3, 3HA-3FLAG-CIAO3, wildtype (human, UniProt Q9H6Q4 1-476)
T3 construct: human CIAO3 (NARFL) cDNA, amplified with primers from the start codon to the stop codon, in pcDNA5/FRT with an N-terminal tandem 3xHA-3xFLAG tag; also called 3HA-3FLAG-tagged CIAO3; wildtype CIAO3; source: Flp-In T-REx 293, stably expressed, induced with doxycycline, in lysate; not shown: 3xHA, N-terminal, kept; 3xFLAG, N-terminal, kept
T3 sequence (Q9H6Q4 whole entry): as the sequence (Q9H6Q4 whole entry C71S/C190S/C395S) above, with S71C, S190C, S395C counted along it

[3] = target: T4, 3HA-3FLAG-CIAO3-C190S/C395S (human, UniProt Q9H6Q4 1-476, C190S | C395S)
T4 construct: human CIAO3 (NARFL), as m13, with C190S and C395S (C-terminal Fe-S cluster site); also called C190S/C395S mutant; source: Flp-In T-REx 293, stably expressed, induced with doxycycline, in lysate; not shown: 3xHA, N-terminal, kept; 3xFLAG, N-terminal, kept
T4 sequence (Q9H6Q4 whole entry C190S/C395S): as the sequence (Q9H6Q4 whole entry C71S/C190S/C395S) above, with S71C counted along it

Row | Binder | fold change against wildtype CIAO3 [1] [fold] | fold decrease against wildtype CIAO3 (3HA-3FLAG-CIAO3-C71S) [fold] | fold reduction against wildtype CIAO3 [1] [fold] | fold reduction in iron-deficient (DFO) against iron-replete (FAC) conditions [2] [fold] | fold reduction against wildtype CIAO3 [3] [fold] | fold reduction against wildtype CIAO3 (3HA-3FLAG-CIAO3-C71S) [fold]
1 | cytosolic iron-sulfur assembly component 2B (CIAO2B) (natural protein, human (endogenous in Flp-In T-REx 293), UniProt Q9Y3D0 1-163, looked up, CIAO2B (cytosolic iron-sulfur assembly component 2B), component of the CIA targeting complex, endogenous; source: endogenous, Flp-In T-REx 293 lysate) MVGGGGVGGGLLENANPLIYQRSGERPVTAGEEDEQVPDSIDAREIFDLIRSINDPEHPLTLEELNVVEQVRVQVSDPESTVAVAFTPTIPHCSMATLIGLSIKVKLLRSLPQRFKMDVHITPGTHASEHAVNKQLADKERVAAALENTHLLEVVNQCLSARS | 2 | ~5 | – | – | – | –
2 | probable cytosolic iron-sulfur protein assembly protein CIAO1 (natural protein, CIAO1, component of the CIA targeting complex, endogenous; source: endogenous, Flp-In T-REx 293 lysate) not shown | 2 | ~5 | – | – | – | –
3 | nucleotide-binding protein 2 (NUBP2), endogenous (natural protein, human (endogenous in Flp-In T-REx 293), UniProt Q9Y5Y2 1-271, looked up, also called CFD1; source: endogenous, Flp-In T-REx 293 lysate) MEAAAEPGNLAGVRHIILVLSGKGGVGKSTISTELALALRHAGKKVGILDVDLCGPSIPRMLGAQGRAVHQCDRGWAPVFLDREQSISLMSVGFLLEKPDEAVVWRGPKKNALIKQFVSDVAWGELDYLVVDTPPGTSDEHMATIEALRPYQPLGALVVTTPQAVSVGDVRRELTFCRKTGLRVMGIVENMSGFTCPHCTECTSVFSRGGGEELAQLAGVPFLGSVPLDPALMRTLEEGHDFIQEFPGSPAFAALTSIAQKILDATPACLP | – | – | > 32 | ~4 | > 32 | > 32
4 | nucleotide-binding protein 1 (NUBP1) (natural protein, human (endogenous in Flp-In T-REx 293), UniProt P53384 1-320, looked up, also called NBP35; source: endogenous, Flp-In T-REx 293 lysate) MEEVPHDCPGADSAQAGRGASCQGCPNQRLCASGAGATPDTAIEEIKEKMKTVKHKILVLSGKGGVGKSTFSAHLAHGLAEDENTQIALLDIDICGPSIPKIMGLEGEQVHQSGSGWSPVYVEDNLGVMSVGFLLSSPDDAVIWRGPKKNGMIKQFLRDVDWGEVDYLIVDTPPGTSDEHLSVVRYLATAHIDGAVIITTPQEVSLQDVRKEINFCRKVKLPIIGVVENMSGFICPKCKKESQIFPPTTGGAELMCQDLEVPLLGRVPLDPLIGKNCDKGQSFFIDAPDSPATLAYRSIIQRIQEFCNLHQSKEENLISS | – | – | > 32 | ~4 | > 32 | > 32
5 | MMS19 nucleotide excision repair protein homolog (MMS19) (natural protein, human (endogenous in Flp-In T-REx 293), UniProt Q96T76 1-1030, looked up, MMS19 nucleotide excision repair protein homolog, component of the CIA targeting complex, endogenous; source: endogenous, Flp-In T-REx 293 lysate) MAAAAAVEAAAPMGALWGLVHDFVVGQQEGPADQVAADVKSGNYTVLQVVEALGSSLENPEPRTRARAIQLLSQVLLHCHTLLLEKEVVHLILFYENRLKDHHLVIPSVLQGLKALSLCVALPPGLAVSVLKAIFQEVHVQSLPQVDRHTVYNIITNFMRTREEELKSLGADFTFGFIQVMDGEKDPRNLLVAFRIVHDLISRDYSLGPFVEELFEVTSCYFPIDFTPPPNDPHGIQREDLILSLRAVLASTPRFAEFLLPLLIEKVDSEVLSAKLDSLQTLNACCAVYGQKELKDFLPSLWASIRREVFQTASERVEAEGLAALHSLTACLSRSVLRADAEDLLDSFLSNILQDCRHHLCEPDMKLVWPSAKLLQAAAGASARACDSVTSNVLPLLLEQFHKHSQSSQRRTILEMLLGFLKLQQKWSYEDKDQRPLNGFKDQLCSLVFMALTDPSTQLQLVGIRTLTVLGAQPDLLSYEDLELAVGHLYRLSFLKEDSQSCRVAALEASGTLAALYPVAFSSHLVPKLAEELRVGESNLTNGDEPTQCSRHLCCLQALSAVSTHPSIVKETLPLLLQHLWQVNRGNMVAQSSDVIAVCQSLRQMAEKCQQDPESCWYFHQTAIPCLLALAVQASMPEKEPSVLRKVLLEDEVLAAMVSVIGTATTHLSPELAAQSVTHIVPLFLDGNVSFLPENSFPSRFQPFQDGSSGQRRLIALLMAFVCSLPRNVEIPQLNQLMRELLELSCCHSCPFSSTAAAKCFAGLLNKHPAGQQLDEFLQLAVDKVEAGLGSGPCRSQAFTLLLWVTKALVLRYHPLSSCLTARLMGLLSDPELGPAAADGFSLLMSDCTDVLTRAGHAEVRIMFRQRFFTDNVPALVQGFHAAPQDVKPNYLKGLSHVLNRLPKPVLLPELPTLLSLLLEALSCPDCVVQLSTLSCLQPLLLEAPQVMSLHVDTLVTKFLNLSSSPSMAVRIAALQCMHALTRLPTPVLLPYKPQVIRALAKPLDDKKRLVRKEAVSARGEWFLLGSPGS | 2 | ~5 | – | – | – | –
